First the molecules themselves.
B1: TRAF3IP2 (parent)
chain: KEHVPTWLQNTHVYSWPKNKKNIL
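Also: lentivirally expressed fusions sorted by FACS into six bins by GFP to DsRed ratio, PSI derived from sequencing read proportions per bin multiplied by bin number.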

The variants in this series derive from B1. The series can be described thus: protein stability index of a GFP-peptide fusion (GPS, HEK-293T) (PSI 1-6); higher = more stable. The conditions noted are these: c terminus: a fixed tail appended.
On to KEHVPTWLQNTHVYSWPKNFKNIL, for which the protein stability index was 1.59.

With KEHVPTWLQNTHVYSWPKNSKNIL, the protein stability index was determined as 2.64.

On to KEHVPTWLQNTHVYSWPKNLKNIL, for which the protein stability index amounted to 1.74.

Regarding KEHVPTWLQNTHVYSWPKNIKNIL, the protein stability index was found to be 3.38.

KEHVPTWLQNTHVYSWPKNGKNIL: the protein stability index turned out to be 2.18.

As to KEHVPTWLQNTHVYSWPKNEKNIL, the protein stability index came out at 2.54.

Consider KEHVPTWLQNTHVYSWPKNAKNIL, for which the protein stability index is 1.94.

Turning to KEHVPTWLQNTHVYSWPKNTKNIL, the protein stability index came to 2.96.

On to KEHVPTWLQNTHVYSWPKNRKNIL, for which the protein stability index stood at 2.29.

Take KEHVPTWLQNTHVYSWPKNVKNIL: the protein stability index was found to be 1.99.

As to KEHVPTWLQNTHVYSWPKNYKNIL, the protein stability index is 1.81.

Take KEHVPTWLQNTHVYSWPKNMKNIL: the protein stability index stood at 1.58.

As to KEHVPTWLQNTHVYSWPKNWKNIL, the protein stability index amounted to 2.07.

Regarding KEHVPTWLQNTHVYSWPKNNKNIL, the protein stability index is 2.02.

For the variant KEHVPTWLQNTHVYSWPKNHKNIL, the protein stability index worked out at 2.21.

Take KEHVPTWLQNTHVYSWPKNPKNIL: the protein stability index amounted to 2.72.

For the variant KEHVPTWLQNTHVYSWPKNDKNIL, the protein stability index is 2.31.

As for KEHVPTWLQNTHVYSWPKNCKNIL, the protein stability index was 1.89.

Consider KEHVPTWLQNTHVYSWPKNQKNIL, for which the protein stability index came to 2.25.

As to KEHVPTWLQNTHVYSWPGNKKNIL, the protein stability index amounted to 2.53.

With KEHVPTWLQNTHVYSWPMNKKNIL, the protein stability index turned out to be 2.42.

On to KEHVPTWLQNTHVYSWPINKKNIL, for which the protein stability index stood at 2.05.

For the variant KEHVPTWLQNTHVYSWPWNKKNIL, the protein stability index is 1.91.

On to KEHVPTWLQNTHVYSWPANKKNIL, for which the protein stability index stood at 2.66.

For the variant KEHVPTWLQNTHVYSWPTNKKNIL, the protein stability index came to 2.52.

As to KEHVPTWLQNTHVYSWPENKKNIL, the protein stability index came out at 2.88.

Turning to KEHVPTWLQNTHVYSWPDNKKNIL, the protein stability index stood at 2.17.

In the case of KEHVPTWLQNTHVYSWPQNKKNIL, the protein stability index stood at 3.64.

Consider KEHVPTWLQNTHVYSWPLNKKNIL, for which the protein stability index was found to be 2.41.

For the variant KEHVPTWLQNTHVYSWPFNKKNIL, the protein stability index stood at 2.12.

On to KEHVPTWLQNTHVYSWPVNKKNIL, for which the protein stability index was determined as 2.14.

In the case of KEHVPTWLQNTHVYSWPHNKKNIL, the protein stability index amounted to 2.37.

As for KEHVPTWLQNTHVYSWPNNKKNIL, the protein stability index amounted to 2.81.

Turning to KEHVPTWLQNTHVYSWPRNKKNIL, the protein stability index was determined as 3.38.

As for KEHVPTWLQNTHVYSWPSNKKNIL, the protein stability index is 2.1.

Turning to KEHVPTWLQNTHVYSWPPNKKNIL, the protein stability index amounted to 3.12.

On to KEHVPTWLQNTHVYSWPYNKKNIL, for which the protein stability index was determined as 3.3.

For the variant KEHVPTWLQNTHVYSWPCNKKNIL, the protein stability index was 2.33.

With KEHVPTWLQNTHVYSWPKRKKNIL, the protein stability index is 2.3.

For KEHVPTWLQNTHVYSWPKEKKNIL, the protein stability index came out at 2.72.

As for KEHVPTWLQNTHVYSWPKDKKNIL, the protein stability index was 3.03.

With KEHVPTWLQNTHVYSWPKKKKNIL, the protein stability index amounted to 2.06.

As to KEHVPTWLQNTHVYSWPKQKKNIL, the protein stability index was 2.51.

In the case of KEHVPTWLQNTHVYSWPKFKKNIL, the protein stability index turned out to be 2.02.

With KEHVPTWLQNTHVYSWPKHKKNIL, the protein stability index was 2.19.

In the case of KEHVPTWLQNTHVYSWPKIKKNIL, the protein stability index was found to be 2.08.

With KEHVPTWLQNTHVYSWPKYKKNIL, the protein stability index amounted to 2.03.

Take KEHVPTWLQNTHVYSWPKCKKNIL: the protein stability index turned out to be 2.98.

KEHVPTWLQNTHVYSWPKVKKNIL: the protein stability index stood at 2.34.

In the case of KEHVPTWLQNTHVYSWPKAKKNIL, the protein stability index was 2.81.

KEHVPTWLQNTHVYSWPKGKKNIL: the protein stability index turned out to be 2.56.

For the variant KEHVPTWLQNTHVYSWPKTKKNIL, the protein stability index came to 2.01.

For the variant KEHVPTWLQNTHVYSWPKLKKNIL, the protein stability index was 1.55.

With KEHVPTWLQNTHVYSWPKMKKNIL, the protein stability index was 1.97.

Regarding KEHVPTWLQNTHVYSWPKSKKNIL, the protein stability index worked out at 2.61.

For KEHVPTWLQNTHVYSWPKPKKNIL, the protein stability index stood at 2.43.

As for KEHVPTWLQNTHVYSWPKWKKNIL, the protein stability index turned out to be 1.4.

For KEHVPTWLQNTHVYSWPKNKKEIL, the protein stability index turned out to be 2.64.

As for KEHVPTWLQNTHVYSWPKNKKRIL, the protein stability index amounted to 2.2.

Consider KEHVPTWLQNTHVYSWPKNKKIIL, for which the protein stability index amounted to 1.5.

For KEHVPTWLQNTHVYSWPKNKKCIL, the protein stability index stood at 1.71.

Consider KEHVPTWLQNTHVYSWPKNKKKIL, for which the protein stability index was found to be 2.9.

On to KEHVPTWLQNTHVYSWPKNKKSIL, for which the protein stability index came to 1.97.

In the case of KEHVPTWLQNTHVYSWPKNKKHIL, the protein stability index worked out at 2.08.

Take KEHVPTWLQNTHVYSWPKNKKPIL: the protein stability index came out at 2.84.

For the variant KEHVPTWLQNTHVYSWPKNKKVIL, the protein stability index was found to be 2.51.

For KEHVPTWLQNTHVYSWPKNKKQIL, the protein stability index came out at 2.72.

Take KEHVPTWLQNTHVYSWPKNKKGIL: the protein stability index was 2.7.

For the variant KEHVPTWLQNTHVYSWPKNKKYIL, the protein stability index was 1.56.

On to KEHVPTWLQNTHVYSWPKNKKLIL, for which the protein stability index came to 1.7.

KEHVPTWLQNTHVYSWPKNKKMIL: the protein stability index turned out to be 2.19.

For the variant KEHVPTWLQNTHVYSWPKNKKDIL, the protein stability index was found to be 2.04.

In the case of KEHVPTWLQNTHVYSWPKNKKTIL, the protein stability index came to 2.75.

On to KEHVPTWLQNTHVYSWPKNKKFIL, for which the protein stability index is 1.67.

As for KEHVPTWLQNTHVYSWPKNKKAIL, the protein stability index worked out at 2.41.

As for KEHVPTWLQNTHVYWWPKNKKNIL, the protein stability index is 1.68.

Regarding KEHVPTWLQNTHVYQWPKNKKNIL, the protein stability index stood at 2.49.

In the case of KEHVPTWLQNTHVYVWPKNKKNIL, the protein stability index was 2.43.

Regarding KEHVPTWLQNTHVYEWPKNKKNIL, the protein stability index came out at 2.6.

As for KEHVPTWLQNTHVYYWPKNKKNIL, the protein stability index was found to be 2.27.

On to KEHVPTWLQNTHVYLWPKNKKNIL, for which the protein stability index amounted to 2.22.

With KEHVPTWLQNTHVYKWPKNKKNIL, the protein stability index turned out to be 2.77.

As for KEHVPTWLQNTHVYHWPKNKKNIL, the protein stability index was 2.27.

With KEHVPTWLQNTHVYTWPKNKKNIL, the protein stability index stood at 2.54.

As for KEHVPTWLQNTHVYRWPKNKKNIL, the protein stability index amounted to 3.12.

For KEHVPTWLQNTHVYNWPKNKKNIL, the protein stability index is 2.21.

For KEHVPTWLQNTHVYFWPKNKKNIL, the protein stability index was determined as 1.97.

With KEHVPTWLQNTHVYDWPKNKKNIL, the protein stability index amounted to 2.89.

In the case of KEHVPTWLQNTHVYIWPKNKKNIL, the protein stability index turned out to be 1.7.

KEHVPTWLQNTHVYAWPKNKKNIL: the protein stability index was found to be 3.19.

Consider KEHVPTWLQNTHVYCWPKNKKNIL, for which the protein stability index turned out to be 2.15.

In the case of KEHVPTWLQNTHVYMWPKNKKNIL, the protein stability index stood at 2.23.

On to KEHVPTWLQNTHVYPWPKNKKNIL, for which the protein stability index was 2.7.

For the variant KEHVPTWLQNTHVYGWPKNKKNIL, the protein stability index worked out at 2.99.
